Experimental data as given in US20180016306A1.
Changes are numbered by the printed parent chain. Names and notes keep the numbering of the source. Values belong to the binder of their own block, whether it stands above or below them.

How the values were obtained:
[1] = target: aRSV-Fab (Fab fragment of anti-RSV monoclonal IgG Palivizumab, Synagis); experiment: SPR (Biacore 3000), aRSV-Fab on CM5 chip, peptide flowed, 25 C, pH 7.4, 1:1 fit
[2] = target: aRSV-Fab (Fab fragment of anti-RSV monoclonal IgG Palivizumab, Synagis); experiment: affinity chromatography, peptide on aRSV-Fab-immobilised column, linear pH gradient 5.5 to 2.5, pH at elution peak top
[3] = target: aRSV-Fab (Fab fragment of anti-RSV monoclonal IgG Palivizumab, Synagis); experiment: affinity chromatography, peptide on aRSV-Fab-immobilised column, linear pH gradient, pH at elution peak top
[4] = target: aRSV-Fab (Fab fragment of anti-RSV monoclonal IgG Palivizumab, Synagis); experiment: affinity chromatography, aRSV-Fab on LB5t-T16H.4d-immobilised cellulose carrier, linear pH gradient 5.0 to 2.4, pH at elution peak top

- Ka [1]: 1.44e+07 M⁻¹
- koff [1]: 0.0265 s⁻¹
- kon [1]: 381000 M⁻¹ s⁻¹
- Dissociation pH [2]: 3.6 pH
B1: LB5t-T16D.1d (designed binder)
chain: GPLGSEQVTIKENIYFEDGTVQDATFKGTFAEATAEAYRYADLLSKEHGKYTADLEDGGYTINIRFAG

- Ka [1]: 1.17e+07 M⁻¹
- koff [1]: 0.036 s⁻¹
- kon [1]: 422000 M⁻¹ s⁻¹
- Dissociation pH [2]: 3.9 pH
B2: LB5t-T18H.1d (designed binder)
chain: B1 chain with D23T, T25H

- Ka [1]: 2.69e+07 M⁻¹
- koff [1]: 0.0159 s⁻¹
- kon [1]: 428000 M⁻¹ s⁻¹
- Dissociation pH [2]: 3.9 pH
B3: LB5t-T16H.1d (designed binder)
chain: B1 chain with D23H

- Ka [1]: 1.87e+07 M⁻¹
- koff [1]: 0.0225 s⁻¹
- kon [1]: 421000 M⁻¹ s⁻¹
- Dissociation pH [2]: 3.6 pH
B4: LB5t-T16A.1d (designed binder)
chain: B1 chain with D23A

- Ka [1]: 6.79e+06 M⁻¹
- koff [1]: 0.0467 s⁻¹
- kon [1]: 317000 M⁻¹ s⁻¹
- Dissociation pH [2]: 3.85 pH
B5: LB5t-T18D.1d (designed binder)
chain: B1 chain with D23T, T25D

- Ka [1]: 1.08e+06 M⁻¹
- koff [1]: 0.0738 s⁻¹
- kon [1]: 80000 M⁻¹ s⁻¹
- Dissociation pH [2]: 3.9 pH
B6: LB5t-A17H.1d (designed binder)
chain: B1 chain with D23T, A24H

- Dissociation pH [3]: 3.65 pH
B7: LB5t-T16L.1d (designed binder)
chain: B1 chain with D23L

- Ka [1]: 1.26e+07 M⁻¹
- koff [1]: 0.0296 s⁻¹
- kon [1]: 373000 M⁻¹ s⁻¹
- Dissociation pH [2]: 3.65 pH
B8: LB5t-T18Q.1d (designed binder)
chain: B1 chain with D23T, T25Q

- Ka [1]: 6.7e+06 M⁻¹
- koff [1]: 0.0485 s⁻¹
- kon [1]: 325000 M⁻¹ s⁻¹
- Dissociation pH [2]: 3.9 pH
B9: LB5t-Q15H.1d (designed binder)
chain: B1 chain with Q22H, D23T

- Elution pH [4]: 3.66 pH
B10: LB5t-T16H.4d (designed binder)
chain: KEETPETPETDSEEQVTIKENIYFEDGTVQHATFKGTFAEATAEAYRYADLLSKEHGKYTADLEDGGYTINIRFAGKEKTPEEPKEQVTIKENIYFEDGTVQHATFKGTFAEATAEAYRYADLLSKEHGKYTADLEDGGYTINIRFAGKEKTPEEPKEQVTIKENIYFEDGTVQHATFKGTFAEATAEAYRYADLLSKEHGKYTADLEDGGYTINIRFAGKEKTPEEPKEQVTIKENIYFEDGTVQHATFKGTFAEATAEAYRYADLLSKEHGKYTADLEDGGYTINIRFAGKKVDEKPEEC

- Dissociation pH [3]: 2.7 pH
B11: LB1t-Wild.1d (protein)
chain: VTIKANLIFANGSTQTAEFKGTFEKATSEAYAYADTLKKDNGEYTVDVADKGYTLNIKFA

- Dissociation pH [3]: 2.95 pH
B12: LB1t-E18D.1d (designed binder)
chain: B11 chain with E18D
